Measured values from paper PMC4157861.

Target: FHA domain of human kanadaptin (residues 149-276) (human) (UniProt Q9BWU0)
Test: crystal structure; crystals from 1.6 M ammonium sulfate, 0.1 M citric acid pH 5.0, 277 K; space group P2(1)2(1)2(1); tag removed; one homodimer in the asymmetric unit

- stoichiometry N: 2
Substance: FHA domain of human kanadaptin (residues 149-276) (from UniProt Q9BWU0 149-276) (domain or fragment)
